# Results reported in patent publication US12325865B2, “Methods for increasing efficiency of gene editing in cells” (President and Fellows of Harvard College, priority 2017, dated 2025).
# B1: SV40 large T antigen: SV40 large T antigen, treatment also increasing targeting efficiency (protein, UniProt P03070 1-708, looked up)
# Large T antigen: MDKVLNREESLQLMDLLGLERSAWGNIPLMRKAYLKKCKEFHPDKGGDEEKMKKMNTLYKKMEDGVKYAHQPDFGGFWDATEIPTYGTDEWEQWWNAFNEENLFCSEEMPSSDDEATADSQHSTPPKKKRKVEDPKDFPSELLSFLSHAVFSNRTLACFAIYTTKEKAALLYKKIMEKYSVTFISRHNSYNHNILFFLTPHRHRVSAINNYAQKLCTFSFLICKGVNKEYLMYSALTRDPFSVIEESLPGGLKEHDFNPEEAEETKQVSWKLVTEYAMETKCDDVLLLLGMYLEFQYSFEMCLKCIKKEQPSHYKYHEKHYANAAIFADSKNQKTICQQAVDTVLAKKRVDSLQLTREQMLTNRFNDLLDRMDIMFGSTGSADIEEWMAGVAWLHCLLPKMDSVVYDFLKCMVYNIPKKRYWLFKGPIDSGKTTLAAALLELCGGKALNVNLPLDRLNFELGVAIDQFLVVFEDVKGTGGESRDLPSGQGINNLDNLRDYLDGSVKVNLEKKHLNKRTQIFPPGIVTMNEYSVPKTLQARFVKQIDFRPKDYLKHCLERSEFLLEKRIIQSGIALLLMLIWYRPVAEFAQSIQSRIVEWKERLDKEFSLSVYQKMKFNVAMGIGVLDWLRNSDDDDEDSQENADKNEDGGEKNMEDSGHETGIDSQSQGSFQAPQSSQSVHDHNQPYHICRGFTCFKKPPTPPPEPET
# System: PFFF3 cells
# Experiment: Treatment of Cas9/gRNA-modified PFFF3 cells during multiplex PERV pol genetic modification
# Format: cell-based, porcine
# Settings: FIG. 2
# Procedure: Stable expression of Cas9 and the three sgRNAs was achieved by integrating a piggyBac transposon carrying these elements into the PFFF3 genome. The PFFF3 cell line was established expressing a Piggybac-Cas9/3gRNAs construct. Cas9 and […] were carried in the same vector. Cas9 expression was induced by addition of doxycycline.
# Methods described herein where cells are treated with PFTα and/or bFGF mitigate the stress from multiplex DNA damage and support clonal expansion of 100% PERV-free cells. Such DNA damage decreases targeting efficiency of the PFFF3 population over time and results in the inability to obtain 100% PERV-free PFFF3 clonal cell lines. Methods described herein are directed to inhibiting senescence and/or apoptosis pathways with small-molecule drugs so as to increase the targeting efficiency of the PFFF3 population and enhance viability of the highly edited clones. […] (See FIG. 1). […] (See FIG. 2). […] The distribution of the targeting efficiencies of single cell clones treated with PFTα and bFGF was approximately bimodal, and 100% PERV-free PFFF3 clonal cell lines were isolated. The eradication of pol activity was validated by RNA-seq with confirmation that all pol transcripts had been mutated.
molecule,measurement,value
B1,average targeting efficiency of the resulting PFFF3 population,increased average targeting efficiency
